Source: patent US20190359687A1 (Bayer, published 2019)
One block for each binder: values may come before it.

Legend:
[1] = biological target: T1, purified human glycophorin A protein (Sigma, cat # G5017) (human, UniProt P02724 20-150); experiment: ELISA, hGPA
T1 construct: mature; also called Sigma hGPA; Sigma GPA
T1 sequence (looked up): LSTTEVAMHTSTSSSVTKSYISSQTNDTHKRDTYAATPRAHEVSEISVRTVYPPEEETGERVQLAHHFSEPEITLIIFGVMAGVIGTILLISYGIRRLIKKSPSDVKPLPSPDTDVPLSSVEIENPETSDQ
Protocol: (§1) Hybridomas were generated from the spleen cells of these mice and these hybriomas were screened first by fluorescence activated cell sorting (FACS) against isolated human and monkey (Cynomolgus monkey and Rhesus monkey) red blood cells (RBC) and then by ELISA against purified human glycophorin A protein (GPA). Isolated RBC were prepared from whole blood from normal human, cynomolgus monkey, and beagle dog, were anticoagulant with sodium heparin (Bioreclamation). 2-3 mL of whole blood was loaded gently on the top of 3 mL Ficoll Plus (Sigma Aldrich) then centrifuged at 500 g for 20 min at room temperature (RT). The RBC pellets were washed 3 times with 10 mL of PBS, and centrifuge 400 g for 10 min at RT. RBC pellets were re-suspended in PBS at the same total volume as the original blood volume to achieve the same RBC cell density as in whole blood and stored at 4° C. Purified human glycophorin A protein was obtained from Sigma Aldrich and coated on ELISA plates at 2 ug/ml. Binding of antibodies to human GPA was detected using appropriate secondary antibodies using methods well known in the art.

[2] = biological target: T2, human glycophorin A in the red blood cell membrane (human, UniProt P02724 20-150); experiment: FACS, hu RBC
T2 construct: whole, on cells; used for intact RBC, isolated RBC membranes and transfected cells; the assay field tells which; also called GPA; hGPA
T2 sequence (looked up): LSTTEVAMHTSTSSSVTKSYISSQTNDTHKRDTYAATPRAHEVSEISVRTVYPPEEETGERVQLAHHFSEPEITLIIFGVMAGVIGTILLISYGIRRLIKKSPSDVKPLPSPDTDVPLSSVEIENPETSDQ
Protocol: as §1

[3] = biological target: T3, dog red blood cells (dog); experiment: FACS, dog RBC
T3 construct: also called dog RBC
Protocol: as §1

[4] = biological target: T4, Cynomolgus monkey glycophorin A on Cynomolgus monkey red blood cells (Cynomolgus monkey); experiment: FACS, Cyno RBC
T4 construct: whole, on cells; also called Cyno RBC; Cyno GPA
Protocol: as §1

[5] = biological target: T5, Cynomolgus monkey glycophorin A on Cynomolgus monkey red blood cells (Cynomolgus monkey); experiment: partition to Cyno RBC, human HemA plasma, 1 min;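 note: FVIII fusion spiked at 1 IU/mL into RBC suspension at whole-blood density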
T5 construct: whole, on cells; also called Cyno GPA; Cyno RBC

[6] = biological target: T5, Cynomolgus monkey glycophorin A on …; experiment: partition to Cyno RBC, human HemA plasma, 5 min;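 note: FVIII fusion spiked at 1 IU/mL into RBC suspension at whole-blood density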
Protocol: (§2) To evaluate partition to cynomolgus monkey or human red blood cells, whole blood was draw from Cynomolgus monkey or normal human volunteers in to anticoagulant with 4% sodium citrate (Sigma, St Louis, Mo.). The red blood cells were purified by layering the whole blood on to ficoll followed by low speed centrifugation. The supernatant containing plasma, platelets and white blood cells was discarded and the red blood cell pellet was resuspended in 10 pellet volumes of PBS (50 mM Phosphate buffer, pH7.4, 150 mM NaCl). The red blood cells were then pelleted by slow speed centrifugation and the red blood cells re-suspended in 10 volumes of PBS. This washing step was repeated 4 more times and the red blood cells finally resuspended in a volume of plasma from Hemophilia patients with less than 1% of normal levels of FVIII (GeorgeKing Bio-Medical, Overland Park, Kans.) to generate a total volume equal to the initial blood volume such that the RBC density was equal to that of normal whole blood. BDD and RBC targeted FVIII molecules were then spiked into RBC suspension in HemA plasma at 1 IU/mL, and incubated at room temperature for 2-3 hours with gentle rotation. […] An additional control was performed in which BDD or RBC targeted FVIII molecules were added at 11U/ml into the same human hemophilia A plasma and incubated for 5 minutes and 180 mins. These samples were used to determine the input FVIII activity in the presence of plasma which was used to calculate the percentage of the molecule that was bound to RBC. All plasma samples were then assayed together for FVIII activity using the Coatest SP assay (DiaPharma, Columbus, Ohio). The assay was performed following the manufacturer's instructions in a 96-well plate format. […] The plate was incubated at 37° C. for 10 minutes with shaking between each reagent addition.

[7] = biological target: T5, Cynomolgus monkey glycophorin A on …; experiment: partition to Cyno RBC, human HemA plasma, 15 min;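 note: FVIII fusion spiked at 1 IU/mL into RBC suspension at whole-blood density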
[8] = biological target: T5, Cynomolgus monkey glycophorin A on …; experiment: partition to Cyno RBC, human HemA plasma, 30 min;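 note: FVIII fusion spiked at 1 IU/mL into RBC suspension at whole-blood density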
Protocol: as §2

[9] = biological target: T5, Cynomolgus monkey glycophorin A on …; experiment: partition to Cyno RBC, human HemA plasma, 60 min;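 note: FVIII fusion spiked at 1 IU/mL into RBC suspension at whole-blood density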
Protocol: as §2

[10] = biological target: T5, Cynomolgus monkey glycophorin A on …; experiment: partition to Cyno RBC, human HemA plasma, 120 min;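 note: FVIII fusion spiked at 1 IU/mL into RBC suspension at whole-blood density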
[11] = biological target: T6, human glycophorin A on human red blood cells (human, UniProt P02724 20-150); experiment: partition to human RBC, vWF deficient plasma, 1 min
T6 construct: whole, on cells; also called human GPA; huGPA
T6 sequence (looked up): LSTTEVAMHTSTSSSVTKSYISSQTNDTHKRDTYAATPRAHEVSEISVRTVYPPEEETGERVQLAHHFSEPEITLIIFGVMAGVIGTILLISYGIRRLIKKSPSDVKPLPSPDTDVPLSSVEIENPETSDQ

[12] = biological target: T6, human glycophorin A on human red blood …; experiment: partition to human RBC, vWF deficient plasma, 5 min
[13] = biological target: T6, human glycophorin A on human red blood …; experiment: partition to human RBC, vWF deficient plasma, 15 min
[14] = biological target: T6, human glycophorin A on human red blood …; experiment: partition to human RBC, vWF deficient plasma, 30 min
[15] = biological target: T6, human glycophorin A on human red blood …; experiment: partition to human RBC, vWF deficient plasma, 60 min
[16] = biological target: T6, human glycophorin A on human red blood …; experiment: partition to human RBC, vWF deficient plasma, 120 min
[17] = biological target: T7, glycophorin A peptide GP5 (human, biotin at the N-terminus); experiment: Octet, GP5 peptide on the probe, fusion protein in solution, 1:1 fit
T7 construct: Residues 42 to 61 of the human glycophorin A extracellular domain
T7 peptide: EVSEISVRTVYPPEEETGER

[18] = biological target: T3, dog red blood cells; experiment: FACS, Dog RBC
[19] = biological target: T2, human glycophorin A in the red blood …; experiment: FACS, Human RBC
[20] = biological target: T4, Cynomolgus monkey glycophorin A on …; experiment: FACS, Cyno #1 RBC
[21] = biological target: T4, Cynomolgus monkey glycophorin A on …; experiment: FACS, Cyno #2 RBC
[22] = biological target: T4, Cynomolgus monkey glycophorin A on …; experiment: FACS, Cyno #3 RBC

B1: 12C6A6/A5 (antibody, V domains shown)
VH: QVQLQQSGAELARPGASVKMSCKASGYTFTRYSMHWVKQRPGQGLEWIGYINPGTYSTNYNQKFKDRATLTADKSSSTAYMQLNSLTSEDSAVYYCQTGTRDYWGQGTTLTVSS
VL: QIVLTQSPPIMSASPGEKVTITCSAASSVSYIYWFQQKPGTSPKLWIYSTSSLPSGVPTRFSGSGSGTSYSLTISRMEAEDAATYYCHQRSSYPFTFGSGTKLEIR
notes: as m8
EC50 [1]: 0.266 nM
FACS signal [2]: 2840 relative flourescence units
FACS signal [3]: 0.96 relative flourescence units
FACS signal [4]: 7 relative flourescence units

B4: 1E4A2/F8 (antibody, V domains shown)
VH: QVQLQQSGAELARPGASVKMSCKASGYTFTRYSMHWVKQRPGQGLEWIGYINPGTYYTNYNQKFKDRATLTADKSSSTAYMQLNSLTSEDSAVYYCQTGTRDYWGQGTTLTVSS
VL: QIVLTQSPPIMSASPGEKVTITCSAASSVSYIYWFQQKPGTSPKLWIYSTSSLPSGVPTRFSGSGSGTSYSLTISRMEAEDAATYYCHQRSSYPFTFGSGTKLEIR
notes: as m8
EC50 [1]: 0.221 nM
FACS signal [2]: 2560 relative flourescence units
FACS signal [3]: 1 relative flourescence units
FACS signal [4]: 272 relative flourescence units

B5: 1H5B4/H12 (antibody, V domains shown)
VH: QVQLQQSGAELARPGASVKMSCKASGYTFTSYSIHWIKQRPGQSLEWIGYINPNSDYANYNQKFKDKATLTTDKSSTTAYMQLSSLTTDDSAVYYCQTGTRDYWGQGTTLTVSS
VL: DIVMTQSPSSLSVSAGEKVTMSCKSSQSLLNSGNQKNYLAWYQQKPGQPPKLLIYGASTRESGVPDRFTGSGSGTDFTLTISSVQAEDLAVYYCQNDHSYPYTFGGGTKLEIK
notes: as m8
EC50 [1]: 0.403 nM
FACS signal [2]: 1.05 relative flourescence units
FACS signal [4]: 0.93 relative flourescence units

B6: TPP-9049 FVIII-scFv fusion protein (other)
chain: ATRRYYLGAVELSWDYMQSDLGELPVDARFPPRVPKSFPFNTSVVYKKTLFVEFTDHLFNIAKPRPPWMGLLGPTIQAEVYDTVVITLKNMASHPVSLHAVGVSYWKASEGAEYDDQTSQREKEDDKVFPGGSHTYVWQVLKENGPMASDPLCLTYSYLSHVDLVKDLNSGLIGALLVCREGSLAKEKTQTLHKFILLFAVFDEGKSWHSETKNSLMQDRDAASARAWPKMHTVNGYVNRSLPGLIGCHRKSVYWHVIGMGTTPEVHSIFLEGHTFLVRNHRQASLEISPITFLTAQTLLMDLGQFLLFCHISSHQHDGMEAYVKVDSCPEEPQLRMKNNEEAEDYDDDLTDSEMDVVRFDDDNSPSFIQIRSVAKKHPKTWVHYIAAEEEDWDYAPLVLAPDDRSYKSQYLNNGPQRIGRKYKKVRFMAYTDETFKTREAIQHESGILGPLLYGEVGDTLLIIFKNQASRPYNIYPHGITDVRPLYSRRLPKGVKHLKDFPILPGEIFKYKWTVTVEDGPTKSDPRCLTRYYSSFVNMERDLASGLIGPLLICYKESVDQRGNQIMSDKRNVILFSVFDENRSWYLTENIQRFLPNPAGVQLEDPEFQASNIMHSINGYVFDSLQLSVCLHEVAYWYILSIGAQTDFLSVFFSGYTFKHKMVYEDTLTLFPFSGETVFMSMENPGLWILGCHNSDFRNRGMTALLKVSSCDKNTGDYYEDSYEDISAYLLSKNNAIEPRSFSQNPPVLKRHQREITRTTLQSDQEEIDYDDTISVEMKKEDFDIYDEDENQSPRSFQKKTRHYFIAAVERLWDYGMSSSPHVLRNRAQSGSVPQFKKVVFQEFTDGSFTQPLYRGELNEHLGLLGPYIRAEVEDNIMVTFRNQASRPYSFYSSLISYEEDQRQGAEPRKNFVKPNETKTYFWKVQHHMAPTKDEFDCKAWAYFSDVDLEKDVHSGLIGPLLVCHTNTLNPAHGRQVTVQEFALFFTIFDETKSWYFTENMERNCRAPCNIQMEDPTFKENYRFHAINGYIMDTLPGLVMAQDQRIRWYLLSMGSNENIHSIHFSGHVFTVRKKEEYKMALYNLYPGVFETVEMLPSKAGIWRVECLIGEHLHAGMSTLFLVYSNKCQTPLGMASGHIRDFQITASGQYGQWAPKLARLHYSGSINAWSTKEPFSWIKVDLLAPMIIHGIKTQGARQKFSSLYISQFIIMYSLDGKKWQTYRGNSTGTLMVFFGNVDSSGIKHNIFNPPIIARYIRLHPTHYSIRSTLRMELMGCDLNSCSMPLGMESKAISDAQITASSYFTNMFATWSPSKARLHLQGRSNAWRPQVNNPKEWLQVDFQKTMKVTGVTTQGVKSLLTSMYVKEFLISSSQDGHQWTLFFQNGKVKVFQGNQDSFTPVVNSLDPPLLTRYLRIHPQSWVHQIALRMEVLGCEAQDLYGGGSGGGGSGLVPRGSGGGSGGGGSGDIQLTQSPSFLSASVGDRVTITCRASSSVRYIYWFQQKPGKAPKLLIYATSFRQSGVPSRFSGSGSGTEYTLTISSLQPEDFATYYCHQRNSFPYTFGQGTKLEIKGGGGSGGGGSGGGGSGGGGSEVQLVQSGAEVKKPGASVKVSCKASGYTFTTYAIHWVRQAPGQGLEWMGYINPSSGYTRYNPKFKGRVTMTRDKSTSTAYMELRSLRSDDTAVYYCWTGTRDYWGQGTTVTVSS
notes: The entry is the mature protein; mostly a 2 chain molecule; also called BDD-C scFv; PPB 6733
% bound to Cyno RBC [5]: 28.1%
% bound to Cyno RBC [6]: 48.2%
% bound to Cyno RBC [7]: 62.1%
% bound to Cyno RBC [8]: 67.5%
% bound to Cyno RBC [9]: 72.2%
% bound to Cyno RBC [10]: 73.8%
percentage bound to human RBC [11]: 24.6%
percentage bound to human RBC [12]: 48.5%
percentage bound to human RBC [13]: 64.8%
percentage bound to human RBC [14]: 72.5%
percentage bound to human RBC [15]: 77.8%
percentage bound to human RBC [16]: 80.3%
Kd [17]: 2.4 nM
koff [17]: 0.00305 s⁻¹
kon [17]: 1.27e+06 M⁻¹ s⁻¹

Next, values leading:

EC50 [1]: 0.159 nM
FACS signal [2]: 2860 relative flourescence units
FACS signal [3]: 1.05 relative flourescence units
FACS signal [4]: 284 relative flourescence units
B2: 8F9E9/F11 (antibody, V domains shown)
VH: QVQLQQSGAELARPGASVKMSCKASGYTFTSYSIHWIKQRPGQSLEWIGYINPNSDYANYNQKFKDKATLTTDKSSTTAYMQLSSLTTDDSAVYYCQTGTRDYWGQGTTLTVSS
VL: HIVLTQSPAIMSASPGEKVTIICSARSSVSYMYWFQQKPGTSPKLWIYATSSLPSGVPARFSGSGSGTSYSLTISRMEAEDAATYYCHQRSSYPYTFGSGTKLEIK
notes: as m8

EC50 [1]: 0.192 nM
FACS signal [2]: 2860 relative flourescence units
FACS signal [3]: 1.04 relative flourescence units
FACS signal [4]: 280 relative flourescence units
B3: 10F1B10/F3 (antibody, V domains shown)
VH: QVQLLQSGAELARPGASVRISCKASGYTFTRYAMHWVKQRPGQGLEWIGYINPGTFSTNYNQKFKDRATLTADKSSSTAYMQLNSLTSEDSAVYYCQTGTRDYWGQGTTLTVSS
VL: QIVLTQSPPIMSASPGEKVTITCSAASSVSYIYWFQQKPGTSPKLWIYSTSSLPSGVPTRFSGSGSGTSYSLTISRMEAEDAATYYCHQRSSYPFTFGSGTKLEIR
notes: as m8

FACS signal [18]: 1 Flourescent units
FACS signal [19]: 1720 Flourescent units
FACS signal [20]: 1 Flourescent units
FACS signal [21]: 453 Flourescent units
FACS signal [22]: 487 Flourescent units
B7: 1E4 scFv-Fc (Fc fusion)
scFv: QVQLQQSGAELARPGASVKMSCKASGYTFTRYSMHWVKQRPGQGLEWIGYINPGTYYTNYNQKFKDRATLTADKSSSTAYMQLNSLTSEDSAVYYCQTGTRDYWGQGTTLTVSSGGGGSGGGGSGGGGSQIVLTQSPPIMSASPGEKVTITCSAASSVSYIYWFQQKPGTSPKLWIYSTSSLPSGVPTRFSGSGSGTSYSLTISRMEAEDAATYYCHQRSSYPFTFGSGTKLEIRGGGGAGGGGCKPCICTVPEVSSVFIFPPKPKDVLTITLTPKVTCVVVDISKDDPEVQFSWFVDDVEVHTAQTQPREEQFNSTFRSVSELPIMHQDWLNGKEFKCRVNSAAFPAPIEKTISKTKGRPKAPQVYTIPPPKEQMAKDKVSLTCMITDFFPEDITVEWQWNGQPAENYKNTQPIMDTDGSYFVYSKLNVQKSNWEAGNTFTCSVLHEGLHNHHTEKSLSHSPGK
notes: as m18
